Here are results for eight molecules from paper PMC8509808, “Characterization of the Chimeric PriB-SSBc Protein” (International Journal of Molecular Sciences, 2021).

What all share (details): protein: recombinant; tags: none (tag-free); chain copies: 2; label: 5'-32P
The target in data set [1] is T1, PriB-SSBc (chimera KpPriB 1-98 fused to KpSSB 112-174) (Klebsiella pneumoniae, UniProt A6THB2 1-98+A6TGW7:112-174, internal_change). Nature of the data set: EMSA; monomer conc.; 1 complex; EMSA: 20 mM Tris-HCl pH 8.0, 100 mM NaCl, 25 C, 30 min, 1.7 nM 32P-ssDNA; 8% native PAGE in TBE at 4 C. For orientation: Mobility shift assays separate free from complexed probe on a gel.

For data set [2], the target named is T1, PriB-SSBc (chimera KpPriB 1-98 fused to …). Nature of the data set: EMSA; monomer conc.; 2 complexes; EMSA: 20 mM Tris-HCl pH 8.0, 100 mM NaCl, 25 C, 30 min, 1.7 nM 32P-ssDNA; 8% native PAGE in TBE at 4 C.
Data set [3] has the same target. Nature of the data set: EMSA; ND; up to 5 uM protein; EMSA: 20 mM Tris-HCl pH 8.0, 100 mM NaCl, 25 C, 30 min, 1.7 nM 32P-ssDNA; 8% native PAGE in TBE at 4 C.

In the case of TTTTTTTTTTTTTTTTTTTTTTTTTTTTTT (ssDNA) [dT30], the “apparent K (half saturation)” value in data set [1] was 940 ± 80 nM.
For TTTTTTTTTTTTTTTTTTTT (ssDNA) [dT20], the “apparent K (half saturation)” value in data set [1] came to 2120 ± 180 nM.
For TTTTTTTTTTTTTTTTTTTTTTTTTTTTTTTTTTTTTTTT (ssDNA) [dT40], in data set [1], the “apparent K (half saturation)” value worked out at 840 ± 60 nM.
The same measure, in the same setting: the same measure for TTTTTTTTTTTTTTTTTTTTTTTTT (ssDNA) [dT25]: 1150 ± 120 nM.

B1: dT60 (ssDNA)
DNA: TTTTTTTTTTTTTTTTTTTTTTTTTTTTTTTTTTTTTTTTTTTTTTTTTTTTTTTTTTTT
In the case of B1, the “apparent K (half saturation)” value in data set [2] turned out to be 230 ± 20 nM.
As for TTTTTTTTTTTTTTTTTTTTTTTTTTTTTTTTTTTTTTTTTTTTTTTTTT (ssDNA) [dT50], the “apparent K (half saturation)” value in data set [1] came out at 290 ± 20 nM.

B2: dT55 (ssDNA)
DNA: TTTTTTTTTTTTTTTTTTTTTTTTTTTTTTTTTTTTTTTTTTTTTTTTTTTTTTT
On to B2, for which the “apparent K (half saturation)” value in data set [2] was found to be 330 ± 30 nM.
With TTTTTTTTTTTTTTT (ssDNA) [dT15], the binding result in data set [3] was “no binding”.
